Results taken from the RNAGym collection of RNA variant scans (doi:10.7554/elife.80360).

B1: HDV Ribozyme (parent)
chain: GGCCGGCAUGGUCCCAGCCUCCUCGCUGGCGCCGGCUGGGCAACAUUCCGAGGGGACCGUCCCCUCGGUAAUGGCGAAUGGGACCCA

Variants of: B1
Assay: self-cleavage, relative activity (ratio to wild type); higher = more cleavage; co-transcriptional

Variant	self-cleavage
GGUCGGCAUGGUCCCAGCCUCCUCGCUGGCGCCGGCUGGGCAACAUUCCGAAGGGACCGUCCCCUCGGUAAUGGCGAAUGGGACCCA	0.896
GGCCGGCAUGGUCCCAGCCUCCUCGCUGGCGCCGGCUGGGCAACAUUCCGAGGGGACCGUCCCCCCGGUAAUGGCGAAUUGGACCCA	0.106
GGCCGGCAUGGUCCCAGCCUGCACGCUGGCGCCGGCUGGGCAACAUUCCGAGGGGACCGUCCCCUCGGUAAUGGCGAAUGGGACCCA	0.0536
GGCGGGCAUGGUCCCAGCCUCCUCGCUGGCGCCGGCGGGGCAACAUUCCGAGGGGACCGUCCCCUCGGUAAUGGCGAAUGGGACCCA	0.0489
GGCCGGCAUGGUCCCAGCCUCCGCGCUGGCGCCGGCUCGGCAACAUUCCGAGGGGACCGUCCCCUCGGUAAUGGCGAAUGGGACCCA	0.095
GGCCGGCAUGGUCCUAGCCUCCUCGCUGGCGCCGGCUGGGUAACAUUCCGAGGGGACCGUCCCCUCGGUAAUGGCGAAUGGGACCCA	1.05
GGCCGGCAUGGUCCCAGCCUCCUCGCGGGCGCCGGCUGGGCAACAUUCCGAGGGGACCGUCCCCUCGGUAAUGGCGAAUUGGACCCA	0.224
GGCCGGCAAGGUCCCAGCCUCCUCGCUGGCGCCGGCUGAGCAACAUUCCGAGGGGACCGUCCCCUCGGUAAUGGCGAAUGGGACCCA	0.665
GGCCGGCUCGGUCCCAGCCUCCUCGCUGGCGCCGGCUGGGCAACAUUCCGAGGGGACCGUCCCCUCGGUAAUGGCGAAUGGGACCCA	0.906
GGCCUGCAUGGUCCCAGCCUCCUCGCUGGCGCCGGCUGGGCAACAUUCCGAGGGGACCGUCCCCUCGGUAAUGGCGAGUGGGACCCA	0.332
GGCCGGCAUGGUCCCAGCCUCCUCGCUGGCGACGGCUGGGCAACAUUCCGAGGGGACCGUCCCCUCGGUAAAGGCGAAUGGGACCCA	0.156
GGCCCGCAUGGUCCCAGCCUCCUCGCUGGCGCCGGCUGGGGAACAUUCCGAGGGGACCGUCCCCUCGGUAAUGGCGAAUGGGACCCA	0
GGCCGGCAUGGUCCCAGCCUCCUCGCUGGCGCCGGCUGGGCAACAUUUCGAGGGGAGCGUCCCCUCGGUAAUGGCGAAUGGGACCCA	0.798
GGCCGGCAUGGUCCCAGCCUCCUCGCUGGCGACGGCUCGGCAACAUUCCGAGGGGACCGUCCCCUCGGUAAUGGCGAAUGGGACCCA	0.0817
GGCCCGCAUGGUCCCAGCCUCCUCGCUGGCGCCGGCUGGGCAACAUUCCGAGGGGACCGUCCCCUCGGUAAUCGCGAAUGGGACCCA	0.0639
GGCCGGCAUAGUCCCAGCCUCCUCGCUGGCGCCGGCUGGGCAACAUUCAGAGGGGACCGUCCCCUCGGUAAUGGCGAAUGGGACCCA	0.665
GGCCGGCAUGGUCCCAGCCUCCUCGCUGGCGCCGGCUGGGCAACAUUCCGAGGGGACCGUCCCCUCGGUAAUGGCCAAUGGGAUCCA	1.04
GGCUGGCAUGGUCCCAGCCCCCUCGCUGGCGCCGGCUGGGCAACAUUCCGAGGGGACCGUCCCCUCGGUAAUGGCGAAUGGGACCCA	0.0437
GGCCGGCAUUGUCACAGCCUCCUCGCUGGCGCCGGCUGGGCAACAUUCCGAGGGGACCGUCCCCUCGGUAAUGGCGAAUGGGACCCA	0
GGCCGGCAUGGUCCCAGCCUCCUCGCUGGCGCCGGCUGGGCAACAUUCCGCGGGCACCGUCCCCUCGGUAAUGGCGAAUGGGACCCA	0.7
GGCCGGCAUGGUCUAAGCCUCCUCGCUGGCGCCGGCUGGGCAACAUUCCGAGGGGACCGUCCCCUCGGUAAUGGCGAAUGGGACCCA	0.475
GGCCGGCAUGGUACCAGCCUCCUCGCUGGCGCCGGCUGGGCAACAUUCCGAGGGGACCGUCCCGUCGGUAAUGGCGAAUGGGACCCA	0.19

Variant	self-cleavage
GGCCGGCAUGGUCCCAUCCUCCACGCUGGCGCCGGCUGGGCAACAUUCCGAGGGGACCGUCCCCUCGGUAAUGGCGAAUGGGACCCA	0.397
GGCCGGCAUGGUCCCAGCCUCCUCGCUGGCGCCGGCUGGGCAACAUUCGGAGGGGACCGUCCCCUCGGUAAUGGCGAAAGGGACCCA	0.895
GGCCGGCAUGGUCCCAGCCUCCUCGCUGGCGCCGGCUGGGCAACAUUCCGAGGGGACCGUCCCCUUGGUACUGGCGAAUGGGACCCA	0.54
GGCCGGCAUGGUCCCAGCCUCCUCGCUCGCGCCGGCUGGGCAACAUUCCGAGGGGACCGUUCCCUCGGUAAUGGCGAAUGGGACCCA	0.185
GGCCGGCAUGGUCCCAGCCUCCUCGCUGGCGCCGGCUGGGCAACAUUCCGAGGGGACCGUCCCUUCGGUAAUGGCGAAUGGGACCUA	0.772
GGCCGGCAUGGUUCCAGACUCCUCGCUGGCGCCGGCUGGGCAACAUUCCGAGGGGACCGUCCCCUCGGUAAUGGCGAAUGGGACCCA	0.0652
GGCCGGCAUGGUCCCAGCCUCCUCGCUGGCGAAGGCUGGGCAACAUUCCGAGGGGACCGUCCCCUCGGUAAUGGCGAAUGGGACCCA	0.129
GACCGGCAUGGUCCCAGCCUCCUCGCUGGCGCCGGCUGGGCAACAUUCCGAGGGGACCGUCCCCUCGGUAAUGGCGAAUGGGACCCG	0.145
GGCCGGCAUGGUCGCAGCCUCCUCGCUGGCGCCGGCUGGGCAACAUUCCGAGGGGACCGUCCCCUCGGUUAUGGCGAAUGGGACCCA	0.529
GGCCGGCAUGGUCCCAACCUCCUCGCUGGCGCCGGCUGUGCAACAUUCCGAGGGGACCGUCCCCUCGGUAAUGGCGAAUGGGACCCA	0.197
GGCCGGCAUGGUCCCAGUCUCCUCUCUGGCGCCGGCUGGGCAACAUUCCGAGGGGACCGUCCCCUCGGUAAUGGCGAAUGGGACCCA	0.0297
AGCCGGCAUGGUCCCUGCCUCCUCGCUGGCGCCGGCUGGGCAACAUUCCGAGGGGACCGUCCCCUCGGUAAUGGCGAAUGGGACCCA	0
GGCCGGCAUGGUCCCAGCCUCCUCAAUGGCGCCGGCUGGGCAACAUUCCGAGGGGACCGUCCCCUCGGUAAUGGCGAAUGGGACCCA	0.0852
GGCCGGCAGGGUCCCAGCCUCCUCCCUGGCGCCGGCUGGGCAACAUUCCGAGGGGACCGUCCCCUCGGUAAUGGCGAAUGGGACCCA	0
GGCCGGCAUGGUCCCAGCUUCCUCGCUGGCGCCGGCUGGGCAACAUUACGAGGGGACCGUCCCCUCGGUAAUGGCGAAUGGGACCCA	0.117
GGCCGGCAUAGUCCCAGCCUCCUCGCUGGCGCCGGCUGGGCAACAUACCGAGGGGACCGUCCCCUCGGUAAUGGCGAAUGGGACCCA	0.665
GGCCGGCAAGGUCCCAGCCUCCUUGCUGGCGCCGGCUGGGCAACAUUCCGAGGGGACCGUCCCCUCGGUAAUGGCGAAUGGGACCCA	0.449
GGCCGGCAUGGUCCCAACCUCCUCGCUGGCGCCGGCUGGGCAACAUUCCGAGGGGACCGUCCCCUCGGUAAUGGCGAAUGGGAACCA	0.807
GACCGGCAUGGUCCCAGCCUCCUCGCUGGCGCCGGCUGGGCAACAUUCCGAGGGGACCGUCCCCUAGGUAAUGGCGAAUGGGACCCA	0.194
GGCCGGCAUGGUCCCAGCCUCCUCGCUGGCGCCGGCUGGGCAACAUUCCGAGGGGACCGUCCCCUCGGGAAUGGCGAAUGGGAUCCA	0.554
GGCCGGCAUGGUCCCAGCCCCCUCGCUGGCGCCGGCUGGGCAAGAUUCCGAGGGGACCGUCCCCUCGGUAAUGGCGAAUGGGACCCA	0.0692
GGCCGGCAUGGUCCCAGCCUCCUAGCUGGCGCCGGCUGGGCAACAUUCCGACGGGACCGUCCCCUCGGUAAUGGCGAAUGGGACCCA	0.803

Variant	self-cleavage
GGCGGGCAUGGUCCCAGCCUCCUCGCUGGCUCCGGCUGGGCAACAUUCCGAGGGGACCGUCCCCUCGGUAAUGGCGAAUGGGACCCA	0.0282
GGCCGGCAUGGUCCCAGCCUCCUCGCUGGCGCCGGCUGGGAAACAUUCCGAGGGGACCGUCCACUCGGUAAUGGCGAAUGGGACCCA	0.969
GGCCGGCAUGGUCCCAGCCUCCUCGCUGGCGCCGGCUGGGCAACAUUCCGAGGGGACCGCCGCCUCGGUAAUGGCGAAUGGGACCCA	1.07
GGCCGGCAUGGUCCCAGCCUCCUCGCUGGCGCCGGCUGGGCAACAUUCCGAGGGCACCGUCCCCUCGGUAUUGGCGAAUGGGACCCA	0.872
GGCCGGCAUGGACCCAGCCUCCUCGCUGGCGCCGGCUGGGCAACAUUCCGAGGGGACCGUCCCCUCGGUAAUGCCGAAUGGGACCCA	0.135
GGCCGGCAUGGUCCCAGCCUCCUCGCUGGCGCCGGCUGGGUAACAUUCCGAGGGGACCGUCCCCUCGGUAAUGGCGAAUGGGCCCCA	0.332
GGCCGGCAUGGUCCCAGCCUCCUCGCUGGCGCCGGCUGGGCAACAUUCCGAGGGGACCGUCCUCUCGCUAAUGGCGAAUGGGACCCA	0.941
GGCCGGCAUGGUCCCAGCCUCCUCGCUGGCGCCGGCUGGGCAACAUUCCGAUGGGACCGUCCCCUCGGUAAUGGCGAAUGGGAGCCA	0.573
GGCUGGCAUGGUCCCAUCCUCCUCGCUGGCGCCGGCUGGGCAACAUUCCGAGGGGACCGUCCCCUCGGUAAUGGCGAAUGGGACCCA	0.136
GGCCUGCAUGGUCCCAGCCUCCUCGCUGGCGCCGGCUGGGCAACAUUCCGAGGGGACCGUCCCCUCGGUAAUGGCGAAUGGGACACA	0.594
GGCCGGCAUAGUCCCAGCCUCCUCGUUGGCGCCGGCUGGGCAACAUUCCGAGGGGACCGUCCCCUCGGUAAUGGCGAAUGGGACCCA	0.874
GGCCGGCAUGCUCCCAGCCUCCUCUCUGGCGCCGGCUGGGCAACAUUCCGAGGGGACCGUCCCCUCGGUAAUGGCGAAUGGGACCCA	0
GGCCGGAAUGGUCCCAGCCUCCUCGCUGGCGCCGACUGGGCAACAUUCCGAGGGGACCGUCCCCUCGGUAAUGGCGAAUGGGACCCA	0.0841
GGCCAGCAUGGUCCCAGCCUCCUCGCUGGCGCCGGCUGGGCAACAUUCCGAGGGGACCGUCCCCUCGGAAAUGGCGAAUGGGACCCA	0.0519
GGACGGCAUGGUCCCAGCCUCCUAGCUGGCGCCGGCUGGGCAACAUUCCGAGGGGACCGUCCCCUCGGUAAUGGCGAAUGGGACCCA	0.0268
GGCCGGCAUGGUCCCAGCCUCCUCGCUGGCGCGGGCUGGGCAACAUUCCGAGGGGACCGUCCCCUCGGUAAUGGCGAAUGGGACCCG	0.116
AGCCGGCAUGGUCCCAGCCUCCUCGCUGGCGUCGGCUGGGCAACAUUCCGAGGGGACCGUCCCCUCGGUAAUGGCGAAUGGGACCCA	0.133
GGCCGGCAAGGUCCCAGCCUCCUCGCUGGCGCCGGCUGGGCAACAUUCCGAGGGGACCGUCCCCUCGGUAAUGGCGAAUGGAACCCA	0.425
GGCCGGCAUGGUCCCAGCCUCCUCGCUGGCGCCGGCUGGGCAACAUUCCGAGGGGACCGGCCCCUCGGUAAUGGCAAAUGGGACCCA	1.08
GGCCGGCAUGGUCCCAGCCUCCUCGCUGGCGCCGGCUGGGCAAAAUUUCGAGGGGACCGUCCCCUCGGUAAUGGCGAAUGGGACCCA	0.692
